The results in this text go back to patent US20070060522A1 (ENSION, published 2007).

For assay [1], the target named is αMβ2 (Mac-1; CD11b/CD18) on human peripheral blood monocytes (human, UniProt P11215 17-1152; P05107 23-769). Kind of assay: inferred from peptide blocking of monocyte/A375 adherence under flow. The procedure: Pre-treatment of tumor cells with P1 and monocytes with sFn or tumor cells with sFn and monocytes with P2 inhibited adherence to a similar level to that of sFn treatment of both cells (P>0.05 to fibrin; n=5 in each case).
Peptide Blocking of Cellular Adherence: After fluorescence labeling of each cell type, stock peptides were added to both confluent coverslips and/or 1 milliliter suspensions of monocytes (P1 and P2) and/or sFn solution (P3 and P4) for a final treatment concentration of 4 mM (4 uL added to 1 mL suspension). Cells were treated with peptides for 20 minutes at room temperature, followed directly by washing of cells (by centrifugation and resuspension—monocytes, or perfusion with RPMI 1640 for 10 min—tumor cells). For sFn peptide treatment, peptides remained in the sFn solution during incubation. Monocyte adherence to tumor cells under flow conditions was then performed as described above.

Assay [2] has as its target T1, CD54 (ICAM-1) on A375 human melanoma cells (human, UniProt P05362 28-532).
T1 construct: whole, on cells; also called intercellular adhesion molecule-1
Kind of assay: inferred from peptide blocking of monocyte/tumor cell adherence.

T1 sequence (P05362 28-532): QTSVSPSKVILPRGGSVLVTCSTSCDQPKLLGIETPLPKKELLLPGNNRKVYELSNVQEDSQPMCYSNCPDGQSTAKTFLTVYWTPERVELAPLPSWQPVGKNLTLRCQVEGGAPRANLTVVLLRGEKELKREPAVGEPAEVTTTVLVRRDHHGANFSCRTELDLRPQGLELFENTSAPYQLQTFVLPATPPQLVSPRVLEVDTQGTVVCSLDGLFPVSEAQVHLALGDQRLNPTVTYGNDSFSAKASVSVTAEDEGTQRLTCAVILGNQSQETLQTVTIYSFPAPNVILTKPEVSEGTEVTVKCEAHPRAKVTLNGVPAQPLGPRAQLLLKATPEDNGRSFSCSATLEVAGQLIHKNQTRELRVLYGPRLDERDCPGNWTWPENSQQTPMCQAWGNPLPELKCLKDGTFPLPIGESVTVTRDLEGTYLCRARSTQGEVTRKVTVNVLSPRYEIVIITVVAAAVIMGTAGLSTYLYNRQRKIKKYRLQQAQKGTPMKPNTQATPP

B1: Peptide 2 (P2), YKSMKKTTMKIIPFNRLTIF (peptide)
peptide: YKSMKKTTMKIIPFNRLTIF
notes: Synthetic peptide
In the case of B1, the binding result in assay [1] was “binds”.

B2: Peptide 1 (P1), NNQKIVNLKEKVAQLEA (peptide)
peptide: NNQKIVNLKEKVAQLEA
notes: Synthetic peptide (Sigma-Genosys, 50% purity)
Take B2: the binding result in assay [2] is recorded as “binds”.
